B1: VAMP4 (parent)
chain: IMALVAAILLLVIIILIVMKYRT
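Further: lentivirally expressed fusions sorted by FACS into six bins by GFP to DsRed ratio, PSI derived from sequencing read proportions per bin multiplied by bin number.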

The data set covers variants of B1. Briefly: protein stability index of a GFP-peptide fusion (GPS, HEK-293T) (PSI 1-6); higher = more stable. To be noted: c terminus: native.
IMALVAAILLLVYIILIVMKYRT [I13Y]: the protein stability index came out at 3.22.
Consider IMALVAAILLLVTIILIVMKYRT [I13T], for which the protein stability index was 3.82.
Take IMALVAAILLLVPIILIVMKYRT [I13P]: the protein stability index was determined as 2.66.
For IMALVAAILLLVNIILIVMKYRT [I13N], the protein stability index was determined as 3.58.
On to IMALVAAILLLVRIILIVMKYRT [I13R], for which the protein stability index is 3.08.
Take IMALVAAILLLVAIILIVMKYRT [I13A]: the protein stability index worked out at 3.86.
In the case of IMALVAAILLLVKIILIVMKYRT [I13K], the protein stability index worked out at 1.98.
As to IMALVAAILLLVEIILIVMKYRT [I13E], the protein stability index was 1.77.
Consider IMALVAAILLLVIIILIVMKYKT [R22K], for which the protein stability index amounted to 3.58.
Turning to IMALVAAILLLVIIILIVMKYCT [R22C], the protein stability index was found to be 4.02.
The result for IMALVAAILLLVIIILIVMKYNT [R22N] reads 3.2; that for IMALVAAILLLVIIILIVMKYVT [R22V], 3.7.
Take IMALVAAILLLVIIILIVMKYPT [R22P]: the protein stability index was found to be 3.06.
With IMALVAAILLLVIIILIVMKYFT [R22F], the protein stability index was determined as 3.85.
The result for IMALVAALLLLVIIILIVMKYRT [I8L] reads 3.28; that for IMALVAADLLLVIIILIVMKYRT [I8D], 3.13.
For the variant IMALVAAMLLLVIIILIVMKYRT [I8M], the protein stability index was 3.69.
With IMALVAAGLLLVIIILIVMKYRT [I8G], the protein stability index was 3.37.
For IMALVAAVLLLVIIILIVMKYRT [I8V], the protein stability index came to 3.04.
For the variant IMALVAAQLLLVIIILIVMKYRT [I8Q], the protein stability index is 2.01.
As to IMALVAAYLLLVIIILIVMKYRT [I8Y], the protein stability index was 2.26.
Consider IMALLAAILLLVIIILIVMKYRT [V5L], for which the protein stability index was found to be 3.23.
IMALTAAILLLVIIILIVMKYRT [V5T]: the protein stability index came to 3.31.
For IMALIAAILLLVIIILIVMKYRT [V5I], the protein stability index is 2.97.
For IMALRAAILLLVIIILIVMKYRT [V5R], the protein stability index worked out at 2.73.
Take IMALMAAILLLVIIILIVMKYRT [V5M]: the protein stability index was determined as 3.81.
Take IMALQAAILLLVIIILIVMKYRT [V5Q]: the protein stability index is 1.83.
The result for IMALFAAILLLVIIILIVMKYRT [V5F] reads 3.17.
Take IMALVAAILLLVIIILIVMWYRT [K20W]: the protein stability index worked out at 4.14.
On to IMALVAAILLLVIIILIVMCYRT [K20C], for which the protein stability index was determined as 3.3.
Regarding IMALVAAILLLVIIILIVMDYRT [K20D], the protein stability index came to 3.1.
For IMALVAAILLLVIIILIVMFYRT [K20F], the protein stability index was found to be 3.67.
The result for IMALVAAILLLVIIILIVMRYRT [K20R] reads 3.15; that for IMALVAAILLLVIIILIVMNYRT [K20N], 3.25.
The result for IMALVAAILLLVIIILIVMMYRT [K20M] reads 3.62; that for IMAIVAAILLLVIIILIVMKYRT [L4I], 3.33.
As to IMAEVAAILLLVIIILIVMKYRT [L4E], the protein stability index was 1.57.
As to IMAPVAAILLLVIIILIVMKYRT [L4P], the protein stability index is 2.83.
IMAYVAAILLLVIIILIVMKYRT [L4Y]: the protein stability index came out at 2.76.
As to IMAKVAAILLLVIIILIVMKYRT [L4K], the protein stability index was 2.78.
Turning to IMATVAAILLLVIIILIVMKYRT [L4T], the protein stability index turned out to be 3.19.
With IMAHVAAILLLVIIILIVMKYRT [L4H], the protein stability index stood at 2.36.
The result for IMADVAAILLLVIIILIVMKYRT [L4D] reads 2.9; that for IMALVAAILLLVIIILIVMKSRT [Y21S], 3.37; that for IMALVAAILLLVIIILIVMKWRT [Y21W], 3.48.
IMALVAAILLLVIIILIVMKDRT [Y21D]: the protein stability index turned out to be 2.84.
As for IMALVAAILLLVIIILIVMKQRT [Y21Q], the protein stability index amounted to 2.99.
Turning to IMALVAAILLLVIIILIVMKFRT [Y21F], the protein stability index was 3.56.
Take IMALVAAILLLVIIILIVMKRRT [Y21R]: the protein stability index was 1.81.
The result for IMALVAAILLLVIIILIVMKERT [Y21E] reads 2.71; that for IMALVAAILLLVIIILIVMKNRT [Y21N], 3.32.
For the variant IMALVAAILLLVIIILMVMKYRT [I17M], the protein stability index worked out at 3.45.
In the case of IMALVAAILLLVIIILGVMKYRT [I17G], the protein stability index came out at 2.83.
The result for IMALVAAILLLVIIILEVMKYRT [I17E] reads 2.57; that for IMALVAAILLLVIIILLVMKYRT [I17L], 2.96.
The result for IMALVAAILLLVIIILNVMKYRT [I17N] reads 2.79; that for IMALVAAILLLVIIILQVMKYRT [I17Q], 2.31; that for IMALVAAILLYVIIILIVMKYRT [L11Y], 2.68.
With IMALVAAILLAVIIILIVMKYRT [L11A], the protein stability index was 3.51.
Consider IMALVAAILLKVIIILIVMKYRT [L11K], for which the protein stability index is 2.61.
On to IMALVAAILLNVIIILIVMKYRT [L11N], for which the protein stability index came to 2.25.
In the case of IMALVAAILLRVIIILIVMKYRT [L11R], the protein stability index is 2.98.
Regarding IMALVAAILLDVIIILIVMKYRT [L11D], the protein stability index worked out at 2.28.
The result for IMALVAAILLQVIIILIVMKYRT [L11Q] reads 2.6; that for IMALVAAILLTVIIILIVMKYRT [L11T], 3.56; that for IMALVAAILLMVIIILIVMKYRT [L11M], 3.33.
Turning to IMALVAAILLGVIIILIVMKYRT [L11G], the protein stability index is 3.71.
Consider IMALVALILLLVIIILIVMKYRT [A7L], for which the protein stability index came to 3.58.
Take IMALVARILLLVIIILIVMKYRT [A7R]: the protein stability index stood at 3.36.
On to IMALVADILLLVIIILIVMKYRT [A7D], for which the protein stability index came out at 2.37.
For IMALVAHILLLVIIILIVMKYRT [A7H], the protein stability index was 1.84.
The result for IMALVAWILLLVIIILIVMKYRT [A7W] reads 3.03.
As for IMALVAPILLLVIIILIVMKYRT [A7P], the protein stability index came out at 2.75.
Regarding IMALVATILLLVIIILIVMKYRT [A7T], the protein stability index was determined as 3.4.
On to IMALVAGILLLVIIILIVMKYRT [A7G], for which the protein stability index was determined as 3.51.
The result for IMALVAQILLLVIIILIVMKYRT [A7Q] reads 1.91.
Take IMALVAMILLLVIIILIVMKYRT [A7M]: the protein stability index turned out to be 3.09.
For the variant IMALVAKILLLVIIILIVMKYRT [A7K], the protein stability index was determined as 3.15.
In the case of IMALVAVILLLVIIILIVMKYRT [A7V], the protein stability index was 3.45.
In the case of IMALVASILLLVIIILIVMKYRT [A7S], the protein stability index was 3.81.
The result for IMELVAAILLLVIIILIVMKYRT [A3E] reads 2.2.
As for IMVLVAAILLLVIIILIVMKYRT [A3V], the protein stability index is 3.59.
For IMLLVAAILLLVIIILIVMKYRT [A3L], the protein stability index was determined as 3.65.
For IMWLVAAILLLVIIILIVMKYRT [A3W], the protein stability index is 3.47.
The result for IMHLVAAILLLVIIILIVMKYRT [A3H] reads 2.85.
On to IMNLVAAILLLVIIILIVMKYRT [A3N], for which the protein stability index is 2.46.
In the case of IMMLVAAILLLVIIILIVMKYRT [A3M], the protein stability index came to 3.72.
Take IMPLVAAILLLVIIILIVMKYRT [A3P]: the protein stability index was determined as 2.9.
The result for ISALVAAILLLVIIILIVMKYRT [M2S] reads 3.18; that for IQALVAAILLLVIIILIVMKYRT [M2Q], 2.96.
Consider IIALVAAILLLVIIILIVMKYRT [M2I], for which the protein stability index came out at 3.15.
ILALVAAILLLVIIILIVMKYRT [M2L]: the protein stability index is 3.03.
In the case of IDALVAAILLLVIIILIVMKYRT [M2D], the protein stability index was found to be 2.98.
For the variant IVALVAAILLLVIIILIVMKYRT [M2V], the protein stability index was 2.72.
For the variant ITALVAAILLLVIIILIVMKYRT [M2T], the protein stability index was 2.81.
As for IYALVAAILLLVIIILIVMKYRT [M2Y], the protein stability index stood at 3.22.
The result for IFALVAAILLLVIIILIVMKYRT [M2F] reads 3.53.
